B1: Dystrobrevin beta (Homo sapiens), O60941 (parent)
chain: MIEESGNKRKTMAEKRQLFIEMRAQNFDVIRLSTYRTACKLRFVQKRCNLHLVDIWNMIEAFRDNGLNTLDHTTEISVSRLETVISSIYYQLNKRLPSTHQISVEQSISLLLNFMIAAYDSEGRGKLTVFSVKAMLATMCGGKMLDKLRYVFSQMSDSNGLMIFSKFDQFLKEVLKLPTAVFEGPSFGYTEHSVRTCFPQQRKIMLNMFLDTMMADPPPQCLVWLPLMHRLAHVENVFHPVECSYCRCESMMGFRYRCQQCHNYQLCQNCFWRGHAGGPHSNQHQMKEHSSWKSPAKKLSHAISKSLGCVPTREPPHPVFPEQPEKPLDLAHIVPPRPLTNMNDTMVSHMSSGVPTPTKRLQYSQDIPSHLADEHALIASYVARLQHCARVLDSPSRLDEEHRLIARYAARLAAEAGNVTRPPTDLSFNFDANKQQRQLIAELENKNREILQEIQRLRLEHEQASQPTPEKAQQNPTLLAELRLLRQRKDELEQRMSALQESRRELMVQLEELMKLLKEEEQKQAAQATGSPHTSPTHGGGRPMPMPVRSTSAGSTPTHCPQDSLSGVGGDVQEAFAQGTRRNLRNDLLVAADSITNTMSSLVKELHSAEEGAEEEEEKMQNGKDRG
partner: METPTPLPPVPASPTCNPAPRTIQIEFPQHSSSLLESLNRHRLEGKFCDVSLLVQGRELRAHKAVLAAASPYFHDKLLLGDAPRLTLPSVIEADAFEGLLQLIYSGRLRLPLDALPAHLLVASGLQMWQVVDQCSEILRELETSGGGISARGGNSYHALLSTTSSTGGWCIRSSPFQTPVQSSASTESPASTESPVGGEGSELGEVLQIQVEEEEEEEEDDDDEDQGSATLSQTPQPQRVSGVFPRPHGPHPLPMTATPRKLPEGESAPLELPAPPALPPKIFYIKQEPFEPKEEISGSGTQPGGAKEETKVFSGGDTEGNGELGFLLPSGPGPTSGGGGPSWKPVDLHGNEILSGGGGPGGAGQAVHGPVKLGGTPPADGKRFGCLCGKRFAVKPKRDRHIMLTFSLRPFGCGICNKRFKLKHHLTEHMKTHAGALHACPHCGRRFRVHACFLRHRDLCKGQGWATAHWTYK
B2: Plasma alpha-L-fucosidase (Homo sapiens), Q9BTY2 (parent)
chain: MRPQELPRLAFPLLLLLLLLLPPPPCPAHSATRFDPTWESLDARQLPAWFDQAKFGIFIHWGVFSVPSFGSEWFWWYWQKEKIPKYVEFMKDNYPPSFKYEDFGPLFTAKFFNANQWADIFQASGAKYIVLTSKHHEGFTLWGSEYSWNWNAIDEGPKRDIVKELEVAIRNRTDLRFGLYYSLFEWFHPLFLEDESSSFHKRQFPVSKTLPELYELVNNYQPEVLWSDGDGGAPDQYWNSTGFLAWLYNESPVRGTVVTNDRWGAGSICKHGGFYTCSDRYNPGHLLPHKWENCMTIDKLSWGYRREAGISDYLTIEELVKQLVETVSCGGNLLMNIGPTLDGTISVVFEERLRQMGSWLKVNGEAIYETHTWRSQNDTVTPDVWYTSKPKEKLVYAIFLKWPTSGQLFLGHPKAILGATEVKLLGHGQPLNWISLEQNGIMVELPQLTIHQMPCKWGWALALTNVI
B3: RING finger protein 11 (Homo sapiens), Q9Y3C5 (parent)
chain: MGNCLKSPTSDDISLLHESQSDRASFGEGTEPDQEPPPPYQEQVPVPVYHPTPSQTRLATQLTEEEQIRIAQRIGLIQHLPKGVYDPGRDGSEKKIRECVICMMDFVYGDPIRFLPCMHIYHLDCIDDWLMRSFTCPSCMEPVDAALLSSYETN
B4: Vesicle transport through interaction with t-SNAREs homolog 1B (Homo sapiens), Q9UEU0 (parent)
chain: MASSAASSEHFEKLHEIFRGLHEDLQGVPERLLGTAGTEEKKKLIRDFDEKQQEANETLAEMEEELRYAPLSFRNPMMSKLRNYRKDLAKLHREVRSTPLTATPGGRGDMKYGIYAVENEHMNRLQSQRAMLLQGTESLNRATQSIERSHRIATETDQIGSEIIEELGEQRDQLERTKSRLVNTSENLSKSRKILRSMSRKVTTNKLLLSIIILLELAILGGLVYYKFFRSH
partner: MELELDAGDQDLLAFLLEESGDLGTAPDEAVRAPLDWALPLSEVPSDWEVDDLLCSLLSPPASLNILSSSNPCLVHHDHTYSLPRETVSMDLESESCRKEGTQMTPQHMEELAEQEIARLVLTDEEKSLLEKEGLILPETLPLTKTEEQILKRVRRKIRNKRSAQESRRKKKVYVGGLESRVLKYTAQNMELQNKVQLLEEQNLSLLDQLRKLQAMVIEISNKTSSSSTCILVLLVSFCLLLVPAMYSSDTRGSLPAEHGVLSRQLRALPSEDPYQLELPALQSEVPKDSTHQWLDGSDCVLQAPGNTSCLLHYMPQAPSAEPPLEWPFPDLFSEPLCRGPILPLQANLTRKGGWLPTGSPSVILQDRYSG
B5: Four and a half LIM domains protein 3 (Homo sapiens), Q13643 (parent)
chain: MSESFDCAKCNESLYGRKYIQTDSGPYCVPCYDNTFANTCAECQQLIGHDSRELFYEDRHFHEGCFRCCRCQRSLADEPFTCQDSELLCNDCYCSAFSSQCSACGETVMPGSRKLEYGGQTWHEHCFLCSGCEQPLGSRSFVPDKGAHYCVPCYENKFAPRCARCSKTLTQGGVTYRDQPWHRECLVCTGCQTPLAGQQFTSRDEDPYCVACFGELFAPKCSSCKRPIVGLGGGKYVSFEDRHWHHNCFSCARCSTSLVGQGFVPDGDQVLCQGCSQAGP
partner: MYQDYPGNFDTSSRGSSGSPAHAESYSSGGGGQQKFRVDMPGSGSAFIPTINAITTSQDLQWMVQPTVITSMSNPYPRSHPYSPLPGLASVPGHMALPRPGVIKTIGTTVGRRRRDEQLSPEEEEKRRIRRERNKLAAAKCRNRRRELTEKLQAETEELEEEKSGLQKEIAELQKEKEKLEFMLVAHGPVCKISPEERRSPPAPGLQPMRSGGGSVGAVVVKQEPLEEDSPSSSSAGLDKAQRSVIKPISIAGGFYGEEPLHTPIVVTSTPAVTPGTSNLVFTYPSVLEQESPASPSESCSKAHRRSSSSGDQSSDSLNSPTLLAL
B6: Cytohesin-4 (Homo sapiens), Q9UIA0 (parent)
chain: MDLCHPEPAELSSGETEELQRIKWHRKQLLEDIQKLKDEIADVFAQIDCFESAEESRMAQKEKELCIGRKKFNMDPAKGIQYFIEHKLLTPDVQDIARFLYKGEGLNKTAIGTYLGERDPINLQVLQAFVDCHEFANLNLVQALRQFLWSFRLPGEAQKIDRMMEAFATRYCLCNPGVFQSTDTCYVLSFSIIMLNTSLHNPNVRDRPPFERFVSMNRGINNGSDLPEDQLRNLFDSIKSEPFSIPEDDGNDLTHTFFNPDREGWLLKLGGRVKTWKRRWFILTDNCLYYFEFTTDKEPRGIIPLENLSVQKVDDPKKPFCLELYNPSCRGQKIKACKTDGDGRVVEGKHESYRISATSAEERDQWIESIRASITRVPFYDLVSTRKKKIASKQ
partner: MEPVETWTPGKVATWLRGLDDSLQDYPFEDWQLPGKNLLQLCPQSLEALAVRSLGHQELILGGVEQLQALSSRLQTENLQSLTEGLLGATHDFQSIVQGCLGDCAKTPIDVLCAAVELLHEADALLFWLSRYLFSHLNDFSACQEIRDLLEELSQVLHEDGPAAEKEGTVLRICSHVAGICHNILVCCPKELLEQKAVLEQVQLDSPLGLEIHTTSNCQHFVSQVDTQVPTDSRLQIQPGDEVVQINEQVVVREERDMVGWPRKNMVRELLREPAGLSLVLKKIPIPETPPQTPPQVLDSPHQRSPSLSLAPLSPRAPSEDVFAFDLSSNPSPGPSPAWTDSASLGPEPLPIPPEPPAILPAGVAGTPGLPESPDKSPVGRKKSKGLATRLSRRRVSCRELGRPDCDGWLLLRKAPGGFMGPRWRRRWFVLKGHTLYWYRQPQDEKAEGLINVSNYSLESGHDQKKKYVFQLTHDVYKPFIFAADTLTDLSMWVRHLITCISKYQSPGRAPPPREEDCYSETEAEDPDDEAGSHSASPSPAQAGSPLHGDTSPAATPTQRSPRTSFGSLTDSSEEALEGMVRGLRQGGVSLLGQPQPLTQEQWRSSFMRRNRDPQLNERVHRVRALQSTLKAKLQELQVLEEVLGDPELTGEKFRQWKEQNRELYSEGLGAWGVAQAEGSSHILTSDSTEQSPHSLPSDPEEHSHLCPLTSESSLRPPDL
B7: Ceramide transfer protein (Homo sapiens), Q9Y5P4 (parent)
chain: MSDNQSWNSSGSEEDPETESGPPVERCGVLSKWTNYIHGWQDRWVVLKNNALSYYKSEDETEYGCRGSICLSKAVITPHDFDECRFDISVNDSVWYLRAQDPDHRQQWIDAIEQHKTESGYGSESSLRRHGSMVSLVSGASGYSATSTSSFKKGHSLREKLAEMETFRDILCRQVDTLQKYFDACADAVSKDELQRDKVVEDDEDDFPTTRSDGDFLHSTNGNKEKLFPHVTPKGINGIDFKGEAITFKATTAGILATLSHCIELMVKREDSWQKRLDKETEKKRRTEEAYKNAMTELKKKSHFGGPDYEEGPNSLINEEEFFDAVEAALDRQDKIEEQSQSEKVRLHWPTSLPSGDAFSSVGTHRFVQKPYSRSSSMSSIDLVSASDDVHRFSSQVEEMVQNHMTYSLQDVGGDANWQLVVEEGEMKVYRREVEENGIVLDPLKATHAVKGVTGHEVCNYFWNVDVRNDWETTIENFHVVETLADNAIIIYQTHKRVWPASQRDVLYLSVIRKIPALTENDPETWIVCNFSVDHDSAPLNNRCVRAKINVAMICQTLVSPPEGNQEISRDNILCKITYVANVNPGGWAPASVLRAVAKREYPKFLKRFTSYVQEKTAGKPILF
B8: Cyclin-D1-binding protein 1 (Homo sapiens), O95273 (parent)
chain: MASATAPAAAVPTLASPLEQLRHLAEELRLLLPRVRVGEAQETTEEFNREMFWRRLNEAAVTVSREATTLTIVFSQLPLPSPQETQKFCEQVHAAIKAFIAVYYLLPKDQGITLRKLVRGATLDIVDGMAQLMEVLSVTPTQSPENNDLISYNSVWVACQQMPQIPRDNKAAALLMLTKNVDFVKDAHEEMEQAVEECDPYSGLLNDTEENNSDNHNHEDDVLGFPSNQDLYWSEDDQELIIPCLALVRASKACLKKIRMLVAENGKKDQVAQLDDIVDISDEISPSVDDLALSIYPPMCHLTVRINSAKLVSVLKKALEITKASHVTPQPEDSWIPLLINAIDHCMNRIKELTQSELEL
partner: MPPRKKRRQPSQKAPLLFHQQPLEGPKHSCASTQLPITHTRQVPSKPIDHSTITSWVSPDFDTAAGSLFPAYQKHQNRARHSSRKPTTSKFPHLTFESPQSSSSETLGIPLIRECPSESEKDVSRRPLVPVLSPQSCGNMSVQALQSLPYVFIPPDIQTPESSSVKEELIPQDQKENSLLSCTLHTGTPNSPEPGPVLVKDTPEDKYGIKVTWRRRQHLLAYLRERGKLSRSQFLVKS

Variants of: B1
Settings: with zbtb9_human ZBTB9, Q96C00

Variant | effect of a mutation on the interaction
R80H | with no effect

Variants of: B2
Settings: with meox2_human MEOX2, P50222
meox2_human MEOX2, P50222, sequence (P50222 whole entry): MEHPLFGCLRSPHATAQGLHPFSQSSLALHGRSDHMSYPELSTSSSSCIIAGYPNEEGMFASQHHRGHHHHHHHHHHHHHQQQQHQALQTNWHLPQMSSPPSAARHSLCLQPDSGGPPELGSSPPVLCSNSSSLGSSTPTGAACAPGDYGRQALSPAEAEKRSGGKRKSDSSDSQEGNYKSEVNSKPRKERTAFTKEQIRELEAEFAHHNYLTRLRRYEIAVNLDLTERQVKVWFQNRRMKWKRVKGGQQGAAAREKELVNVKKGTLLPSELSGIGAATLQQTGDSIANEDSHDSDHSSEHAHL

Variant | effect of a mutation on the interaction
A233E | with no effect

Variants of: B3
Settings: with ub2d4_human UBE2D4, Q9Y2X8
ub2d4_human UBE2D4, Q9Y2X8, sequence (Q9Y2X8 whole entry): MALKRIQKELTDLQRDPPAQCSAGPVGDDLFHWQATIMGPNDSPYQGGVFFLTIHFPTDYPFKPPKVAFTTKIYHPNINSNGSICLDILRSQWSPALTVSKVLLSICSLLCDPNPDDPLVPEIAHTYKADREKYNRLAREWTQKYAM

Variant | effect of a mutation on the interaction
R97W | with no effect

Variants of: B4
Settings: with creb3_human CREB3, O43889

Variant | effect of a mutation on the interaction
R124Q | with no effect
R176H | with no effect

Variants of: B5
Settings: with fosl2_human FOSL2, P15408

Variant | effect of a mutation on the interaction
R226H | with no effect

Variants of: B6
Settings: with cnkr1_human CNKSR1, Q969H4

Variant | effect of a mutation on the interaction
A9T | with no effect
M74V | with no effect

Variants of: B7
Settings: with rtn4_human RTN4, Q9NQC3
rtn4_human RTN4, Q9NQC3, sequence (Q9NQC3 whole entry): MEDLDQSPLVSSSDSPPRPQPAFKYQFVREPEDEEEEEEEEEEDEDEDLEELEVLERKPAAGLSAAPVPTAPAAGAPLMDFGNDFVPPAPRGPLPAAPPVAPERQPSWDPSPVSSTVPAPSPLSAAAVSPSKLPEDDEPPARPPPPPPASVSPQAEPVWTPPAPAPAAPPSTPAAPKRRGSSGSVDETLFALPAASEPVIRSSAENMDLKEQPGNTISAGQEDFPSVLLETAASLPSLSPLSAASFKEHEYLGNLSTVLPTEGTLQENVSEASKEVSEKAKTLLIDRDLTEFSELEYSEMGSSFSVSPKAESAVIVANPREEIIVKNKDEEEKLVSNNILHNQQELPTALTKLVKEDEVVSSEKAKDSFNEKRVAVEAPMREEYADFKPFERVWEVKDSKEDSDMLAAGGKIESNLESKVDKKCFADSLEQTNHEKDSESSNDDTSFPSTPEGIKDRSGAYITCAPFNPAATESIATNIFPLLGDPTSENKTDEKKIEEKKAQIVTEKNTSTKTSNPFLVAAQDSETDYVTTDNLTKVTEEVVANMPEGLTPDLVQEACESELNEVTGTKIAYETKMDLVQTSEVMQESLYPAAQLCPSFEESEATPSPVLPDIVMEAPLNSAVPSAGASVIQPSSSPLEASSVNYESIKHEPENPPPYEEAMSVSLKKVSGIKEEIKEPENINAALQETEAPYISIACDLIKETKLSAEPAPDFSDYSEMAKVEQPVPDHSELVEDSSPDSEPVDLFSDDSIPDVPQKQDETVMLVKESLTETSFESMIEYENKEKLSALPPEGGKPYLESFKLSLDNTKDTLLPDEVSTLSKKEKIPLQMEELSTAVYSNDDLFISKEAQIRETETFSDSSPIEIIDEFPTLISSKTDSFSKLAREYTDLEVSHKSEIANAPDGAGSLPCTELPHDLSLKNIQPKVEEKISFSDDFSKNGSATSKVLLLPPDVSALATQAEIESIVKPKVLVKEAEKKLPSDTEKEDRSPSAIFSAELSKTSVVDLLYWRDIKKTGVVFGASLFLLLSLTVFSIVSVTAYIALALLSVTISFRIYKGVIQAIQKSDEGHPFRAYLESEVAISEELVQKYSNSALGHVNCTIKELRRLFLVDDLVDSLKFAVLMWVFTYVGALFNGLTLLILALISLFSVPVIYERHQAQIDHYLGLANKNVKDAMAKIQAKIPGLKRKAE

Variant | effect of a mutation on the interaction
R128H | with no effect

Variants of: B7
Settings: with rtn3_human RTN3, O95197
rtn3_human RTN3, O95197, sequence (O95197 whole entry): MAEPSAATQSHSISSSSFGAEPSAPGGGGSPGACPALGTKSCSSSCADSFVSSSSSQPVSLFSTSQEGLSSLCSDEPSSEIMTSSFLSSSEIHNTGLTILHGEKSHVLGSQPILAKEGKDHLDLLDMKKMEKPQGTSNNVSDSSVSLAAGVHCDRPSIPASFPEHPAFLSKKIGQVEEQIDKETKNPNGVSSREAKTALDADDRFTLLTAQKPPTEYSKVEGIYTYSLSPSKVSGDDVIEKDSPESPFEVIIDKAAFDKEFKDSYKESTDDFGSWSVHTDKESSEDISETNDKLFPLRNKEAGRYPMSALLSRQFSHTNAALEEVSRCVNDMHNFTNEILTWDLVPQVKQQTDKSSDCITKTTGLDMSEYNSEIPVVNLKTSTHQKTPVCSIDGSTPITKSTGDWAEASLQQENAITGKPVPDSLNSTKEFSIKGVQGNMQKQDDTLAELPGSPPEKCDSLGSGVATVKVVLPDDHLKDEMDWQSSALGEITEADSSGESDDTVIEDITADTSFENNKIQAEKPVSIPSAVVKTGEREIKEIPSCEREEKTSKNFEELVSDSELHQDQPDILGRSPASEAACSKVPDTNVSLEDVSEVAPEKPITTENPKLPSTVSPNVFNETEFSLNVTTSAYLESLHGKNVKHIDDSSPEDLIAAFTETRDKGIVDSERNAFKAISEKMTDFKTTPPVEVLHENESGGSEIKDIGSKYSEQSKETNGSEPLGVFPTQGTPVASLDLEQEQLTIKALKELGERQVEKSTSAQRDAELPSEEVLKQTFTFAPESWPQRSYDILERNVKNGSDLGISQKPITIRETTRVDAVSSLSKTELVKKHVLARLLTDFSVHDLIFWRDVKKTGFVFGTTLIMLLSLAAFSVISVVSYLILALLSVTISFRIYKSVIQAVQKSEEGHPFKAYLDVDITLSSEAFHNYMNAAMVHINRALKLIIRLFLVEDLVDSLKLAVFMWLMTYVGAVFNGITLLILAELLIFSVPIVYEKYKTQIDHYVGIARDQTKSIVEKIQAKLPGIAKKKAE

Variant | effect of a mutation on the interaction
R128H | with no effect

Variants of: B7
Settings: with ar6p1_human ARL6IP1, Q15041
ar6p1_human ARL6IP1, Q15041, sequence (Q15041 whole entry): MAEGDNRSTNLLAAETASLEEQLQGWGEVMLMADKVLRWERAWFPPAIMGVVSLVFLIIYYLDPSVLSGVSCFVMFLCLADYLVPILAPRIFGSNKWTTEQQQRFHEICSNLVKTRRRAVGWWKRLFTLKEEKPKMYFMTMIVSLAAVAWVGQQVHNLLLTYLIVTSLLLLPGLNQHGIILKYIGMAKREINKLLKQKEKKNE

Variant | effect of a mutation on the interaction
R128H | with no effect

Variants of: B8
Settings: with rhno1_human RHNO1, Q9BSD3

Variant | effect of a mutation on the interaction
I277T | disrupting interaction strength
